Results as given in US20200283521A1 (GRANULAR THERAPEUTICS, published 2020).

Experiments:
Test in all cases: direct ELISA on coated protein, IgG1
[1] = biological target: T1, hLTBR-Fc (human, UniProt P36941)
T1 construct: Fc fusion; member of the panel m9

[2] = biological target: T2, hDR6-Fc (human, UniProt O75509)
T2 construct: Fc fusion; member of the panel m9
T2 sequence (looked up): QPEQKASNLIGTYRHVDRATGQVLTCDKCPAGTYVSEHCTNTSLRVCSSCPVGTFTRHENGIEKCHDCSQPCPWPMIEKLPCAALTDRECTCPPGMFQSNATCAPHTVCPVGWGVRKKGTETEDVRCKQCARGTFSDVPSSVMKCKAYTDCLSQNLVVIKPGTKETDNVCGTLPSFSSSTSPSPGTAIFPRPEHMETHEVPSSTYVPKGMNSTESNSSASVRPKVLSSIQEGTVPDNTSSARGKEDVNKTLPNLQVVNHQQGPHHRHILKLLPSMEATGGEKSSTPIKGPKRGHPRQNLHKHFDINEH

[3] = biological target: T3, hEpCAM-Fc (human, UniProt P16422)
T3 construct: Fc fusion; member of the panel m9
T3 sequence (looked up): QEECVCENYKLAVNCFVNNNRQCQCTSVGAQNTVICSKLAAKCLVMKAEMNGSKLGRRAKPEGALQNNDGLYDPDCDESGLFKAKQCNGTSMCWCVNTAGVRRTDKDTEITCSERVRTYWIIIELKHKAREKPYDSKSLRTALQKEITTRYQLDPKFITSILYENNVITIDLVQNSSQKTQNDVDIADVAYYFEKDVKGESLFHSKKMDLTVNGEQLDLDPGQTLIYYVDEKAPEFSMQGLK

[4] = biological target: T4, hCMET-Fc (The natural ectodomain is cleaved by furin after residue 307 into disulfide-linked alpha and beta chains. It is given here as one continuous stretch.)
T4 construct: member of the panel m9
T4 chain: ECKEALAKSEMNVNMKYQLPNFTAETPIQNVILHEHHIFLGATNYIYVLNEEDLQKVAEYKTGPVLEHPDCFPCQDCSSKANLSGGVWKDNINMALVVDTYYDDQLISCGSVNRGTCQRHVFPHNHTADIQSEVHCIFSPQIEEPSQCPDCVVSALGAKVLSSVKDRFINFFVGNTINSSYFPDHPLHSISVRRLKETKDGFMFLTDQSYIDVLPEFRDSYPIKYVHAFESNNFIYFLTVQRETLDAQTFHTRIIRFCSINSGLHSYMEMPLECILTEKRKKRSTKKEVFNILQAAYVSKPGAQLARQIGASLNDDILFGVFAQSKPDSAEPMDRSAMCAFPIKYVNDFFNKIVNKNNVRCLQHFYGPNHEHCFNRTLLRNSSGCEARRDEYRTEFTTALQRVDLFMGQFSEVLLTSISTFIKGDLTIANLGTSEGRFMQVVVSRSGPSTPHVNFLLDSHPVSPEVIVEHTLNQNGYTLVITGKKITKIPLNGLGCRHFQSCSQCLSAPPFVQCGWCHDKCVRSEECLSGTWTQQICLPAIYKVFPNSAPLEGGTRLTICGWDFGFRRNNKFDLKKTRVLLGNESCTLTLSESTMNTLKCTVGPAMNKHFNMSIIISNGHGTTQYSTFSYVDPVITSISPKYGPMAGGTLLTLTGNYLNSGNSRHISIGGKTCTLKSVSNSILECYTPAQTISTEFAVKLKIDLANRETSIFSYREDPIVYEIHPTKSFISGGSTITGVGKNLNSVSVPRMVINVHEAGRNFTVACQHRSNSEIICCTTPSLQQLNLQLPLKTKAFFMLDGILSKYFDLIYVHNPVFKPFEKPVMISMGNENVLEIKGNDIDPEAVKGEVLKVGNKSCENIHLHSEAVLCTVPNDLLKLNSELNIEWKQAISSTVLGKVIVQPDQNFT

[5] = biological target: T5, hBAFFR-Fc (human, UniProt Q96RJ3)
T5 construct: Fc fusion; member of the panel m9

[6] = biological target: T6, hVCAM-Fc
T6 construct: member of the panel m9
T6 chain: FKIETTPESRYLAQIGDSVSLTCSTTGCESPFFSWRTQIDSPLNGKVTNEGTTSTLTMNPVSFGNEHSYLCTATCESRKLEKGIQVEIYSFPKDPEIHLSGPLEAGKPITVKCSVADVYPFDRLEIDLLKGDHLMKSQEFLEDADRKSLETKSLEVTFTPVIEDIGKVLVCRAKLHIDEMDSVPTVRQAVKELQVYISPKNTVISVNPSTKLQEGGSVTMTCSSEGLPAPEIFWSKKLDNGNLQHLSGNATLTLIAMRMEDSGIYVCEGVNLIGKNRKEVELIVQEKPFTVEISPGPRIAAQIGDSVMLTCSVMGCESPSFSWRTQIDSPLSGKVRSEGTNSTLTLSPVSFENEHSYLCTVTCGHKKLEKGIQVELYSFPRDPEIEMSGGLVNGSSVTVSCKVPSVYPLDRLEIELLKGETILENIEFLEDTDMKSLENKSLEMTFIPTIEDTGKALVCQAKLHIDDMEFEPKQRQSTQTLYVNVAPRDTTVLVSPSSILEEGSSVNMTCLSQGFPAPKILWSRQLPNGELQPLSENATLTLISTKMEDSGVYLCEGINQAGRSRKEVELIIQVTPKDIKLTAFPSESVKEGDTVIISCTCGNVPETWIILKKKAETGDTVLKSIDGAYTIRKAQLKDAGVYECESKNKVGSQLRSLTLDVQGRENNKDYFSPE

[7] = biological target: T7, hTWEAK-Fc (human, UniProt O43508)
T7 construct: Fc fusion; member of the panel m9
T7 sequence (looked up): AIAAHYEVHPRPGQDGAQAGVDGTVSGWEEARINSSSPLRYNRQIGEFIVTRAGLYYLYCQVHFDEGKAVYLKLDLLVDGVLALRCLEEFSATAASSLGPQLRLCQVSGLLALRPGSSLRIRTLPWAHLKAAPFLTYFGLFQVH

[8] = biological target: T8, hOX40-Fc
T8 construct: member of the panel m9
T8 chain: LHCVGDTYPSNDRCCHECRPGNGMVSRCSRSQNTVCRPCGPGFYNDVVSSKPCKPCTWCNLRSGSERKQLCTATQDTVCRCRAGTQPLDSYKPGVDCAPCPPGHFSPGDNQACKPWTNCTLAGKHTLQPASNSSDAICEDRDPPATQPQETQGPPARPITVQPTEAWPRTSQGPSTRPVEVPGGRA

Measured: binding result

T5 sequence (Q96RJ3 7-71 limits assumed): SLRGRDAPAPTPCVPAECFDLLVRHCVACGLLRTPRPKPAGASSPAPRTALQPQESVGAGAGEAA
T1 sequence (P36941 28-227 limits assumed): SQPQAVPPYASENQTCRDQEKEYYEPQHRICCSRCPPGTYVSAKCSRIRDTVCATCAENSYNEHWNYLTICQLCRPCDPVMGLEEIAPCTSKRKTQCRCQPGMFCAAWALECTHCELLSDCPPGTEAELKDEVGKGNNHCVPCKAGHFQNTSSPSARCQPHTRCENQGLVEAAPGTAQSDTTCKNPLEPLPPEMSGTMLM

B1: MH5, human IgG1 (antibody, V domains shown)
VH: QVQLVQSGAEVKKPGASVKVSCKASGYTFTDYYMNWVRQAPGQGLEWMGRIYPGSGNTYYAQKFQGRVTMTRDTSTSTVYMELSSLRSEDTAVYYCARGVYYYDYWGQGTLVTVSS
VL: DIQMTQSPSSLSASVGDRVTITCRASQGIRTNLAWFQQKPGKAPKSLIYSASSLQSGVPSRFSGSGSGTDFTLTISSLQPEDFATYYCQQYANYPRTFGGGTKVEIK
notes: IgG1; also called C-KIT-MH5; C-KIT-MHS
no binding (tested: 1 µg/ml): all assays above
